Test results as given in the DeepSol protein solubility set.

assay: soluble on expression in E. coli; label from the status in PepcDB or PDB records

**Q.** Which “soluble on expression in E. coli” value does the source give for “IPLFSDAEIKPNHATRTTQVGMPLAISVDDYSQLAFVLTQSGEIQYLSMDAPDKPAIYTQQLATNPVSFSQSAPGLGWYGLVDDQGLAHIFKPEFNATLRENTRPPEVVALSTDMNLTLTDAQDPVTQFVFSASTQTPTIVWQTRSGKVKARWQEKSALGVAPTTIDFSFSAGFDAPQQMLLTPDGETLYLRDGSELIVLTKAAQKFTVREVIDLTQGDKKHSVRTIDLLAGAYSLLVTHNDGRVSQWFDTLQNDKRTLTHIRDFKLASELKYLLPDSHRKGFYSFYTNGTLQSHYTTSEKLVLFKRAYKQAPAMAAMSNNERYLITWNDDSLKVAEVDNSYPEVSLSSLWQKVWYEGYPEPEFVWQSTSASDNFEAKFSLVPIAFGTIKAA” here?
**A.** The value was “not soluble”.

**Q.** For “MGQNDLVKTLRMNYLFDFYQSLLTNKQRNYLELFYLEDYSLSEIADTFNVSRQAVYDNIRRTGDLVEDYEKKLELYQKFEQRREIYDEMKQHLSNPEQIQRYIQQLEDLE”, which “soluble on expression in E. coli” value is on record?
**A.** The value was “not soluble”.

**Q.** Which “soluble on expression in E. coli” value does the source give for “MCGRFVLKATPEEIADYLDLIGLEDFPARFNIAPTQPILVVMEGEQQERGSNLPNRRAVLVRWGFMPGWVKDPKDFPLLINARSETAIGKASFRAAMRHRRVLIPATGFYEWRRPPKEEGGKAQPYFIRPKNGGIVAFAGLMETWSSADGSEVDTGAILTTAANAAIGRIHDRMPVVIAPEDFSRWLDCKTQEPREVADLMRPVQGDFFEMIPVSDKVNKVANVGADLIDPVPESAPLAKVRPAKDDGQMSLFLEHHHHHH” here?
**A.** Its value is “not soluble”.

**Q.** With “MSQPLTTNSVLVEEAAADGDSSAAAPPLFDYHRIDQKLLQNIVYDALVWSTLNCLLVGDKSVQRSGRVPGVGLVHLPLSLLPGPFPESHWKQGCELAPIFNELVDRVSLDGKFLQESLSRTKNADEFTSRLLDIHSKMLQINKKEDIRMGIVRSDYMIDEKTKSLLQIEMNTISTSFALIGCLMTGLHKSLLSQYGKFLGLNSNRVPANNAVDQSAEALAKAWSEYNNPRAAILVVVQVEERNMYEQHYISALLREKHHIRSIRKTLTEIDQEGKILPDGTLSVDGQAISVVYFRAGYTPKDYPSESEWRARLLMEQSSAIKCPTISYHLVGTKKIQQELAKPGVLERFVENKDHIAKLRACFAGLWSLEDSDIVKKAIENPELFVMKPQREGGGNNIYGDELRETLLKLQEAGSQEDAAYILMQRIFPATSPAILVRDGNWDTGHVISEAGIFGTYLRNKDKIIINNESGYMVRTKISSSYEGGVLPGFGVVDTVYLT” as the sequence, how does the “soluble on expression in E. coli” value read?
**A.** The value was “soluble”.

**Q.** For “EETAKEVMTSRLDMVDLEINTPYSDVLKCIVENAYSRIPVYAESRDNIKGILYIKDLLPHLGKGDNFRWQTLVRPAYFVPETKMIDDLLRDFQANKIHIAIVVDEFGGTSGIVTMEDIIEEIVGEINDEYDD”, which “soluble on expression in E. coli” value is on record?
**A.** The value was “soluble”.

**Q.** For “MGSDKIHHHHHHMSRRTQIADMRLSSGVPGFDELIEGGLLPNRLYVVSGPPGSGKTTFCSQFITQGVKEGETCLYVTMHETKTELMQDMAGYDFGFDRAMQSDAIQFLNLVTESGKRTITQFGNEGGLTNRLVAYIRQNDIQRVVIDSTMLLQHFMADVEDEITGFLSALKQTDATTLLISEMTDPSSYSDEHYLAHGVVFFHNFLENGSMTRGVQVIKMRGTAIDCDIREISFSDAGLQVHTDRKVET”, which “soluble on expression in E. coli” value is on record?
**A.** Its value is “not soluble”.

**Q.** With “MSIVNILSVNVLNNPAKFSDPYKFEITFECLEPLKSDLEWKLTYVGSATSQSYDQILDTLLVGPIPIGINKFVFEADPPNIDLLPQLSDVLGVTVILLSCAYEDNEFVRVGYYVNNEMEGLNLQEMDDAEIKKVKVDISKVWRSILAEKPRVTRFNIQWDN” as the sequence, how does the “soluble on expression in E. coli” value read?
**A.** The value was “soluble”.

**Q.** With “MGSDKIHHHHHHMSSATHYILTWQCPDNTGVLAKVSQSLFSHGAFITETSQYSDPYSETFFSRIAFDDRNLTVSSSEFVKALNELAKPLAMQYQLRKRADVPNVLIAVSKDDHCLVSLLTKWRSGALPINIVGVISNHQYCQALSEWHNVPFYHLPVNAETKLEQEAQITDLMEELNIDLLVLARYMQILSDGLCQQLQGKAINIHHSFLPSFKGARPYHQAHARGVKVIGATAHYVTANLDEGPIIAQEVKPINHAFTIEQMVHMGHDLEATALSHAVRIHAEQRVCINGDKTVILA” as the sequence, how does the “soluble on expression in E. coli” value read?
**A.** The value was “not soluble”.

**Q.** For “MSLLNKEALVNRLNASAKRQKADIVIKNGKIMDVYNQEWIYEDIAITDGVIVGLGEYEGENIIDAEGQMIVPGFIDGHVHIESSMVTPIEFAKAVLPHGVTTVVTDPHEIANVSGEKGIEFMLEQARHTPLNIHFMLPSSVPAASFERSGAILKAADLKPFYEEEEVLGLAEVMDYVSVQQAEKDMVQKLLDARVAGKRIDGHLAGLSTDLINIYRTAFVLNDHEVTSKEEALDRIRRGMYVMMREGSVAKNTLNVLPAVNEKNARRFFFCTDDKHVDDLLSEGSVNHQVKMAIQAGLNPFLAYQLGSLNAAECYGLDTKGAIAPGFDADLLFVSDLENVTVTMAMVKGQTVAEDSKAVYQDHASTAAPDQALLDSVKLAAPLNKQDFHMPIDSEQQINVIQIIPNQLETRLVQVPAPVAREFEPDTELDLLKIAVVERHKGLKETGLGVVKGFGFKSGAIATTISHDSHNIIAVGTNDEDIAAAVNKLQEIGGGLTIIKNGEELHSVPLPIAGLLSDQSAEQVNQSLLTLHDKLSLIGFTGGFNPFLTLSFLALPVIPDIKMTTTGLFDVKSFQHISLQEGHHHHHH”, which “soluble on expression in E. coli” value is on record?
**A.** The value was “soluble”.

**Q.** For “MSLNKTQAQVSHALKSLARKEEWKHRLQQSEELHDILLKAANRYVAGEKRSDGLAIARKLQAKGYGISLENIGENTKLLAQCREAKMEFDQLIEDVGAIAPGQTVSFDLSHIGLSYQFDTAYGHLIELAEKANEHEVTLMISMEESTKTDQILAVYRQAAELYSNIGITLQAHLFRTPDDLRKLVQLPGKIRIVKGAYQEPSHLAMERSDYLNNRYLELVDHLVSTNHPVSVATHDQKLLEEMERRQFLQSTDVEIEMLYGIQPSQLKLFKEKGYQTRVYLTYGHEWFLYLCHRLAEYPENIYTALIDIINPSLPKVDDMYEGHHHHHH”, which “soluble on expression in E. coli” value is on record?
**A.** Its value is “soluble”.

**Q.** Which “soluble on expression in E. coli” value does the source give for “MPVAIVTGASSGIGRAAALLLARNNYKLSLTGRNVAALNELAGQIVSAGSDKNDVLVTAVELASEEAPKTIVDATVQKFGRIDTLINSAGILRAGPVLDSGIEVYDELMNVNVRSLIRLTRAALPHIITTKGTVVNVSSINGPCPFPNVTYYCMSKSAVDQFTKCLALEMAPNGVRVNAVCPGVTVTNLHRTSGQDETTYSAFLERSKTTHALGRPGDANEVAEAIYFLASEKSSFTTGELLRVDGGRGIMHPR” here?
**A.** The value was “soluble”.

**Q.** Which “soluble on expression in E. coli” value does the source give for “MKPVFLDFEQPIAELTNKIDELRFVQDESAVDISDEIHRLQKKSNDLTKSIFSKLTPAQISQVSRHPQRPYTLDYIEALFTDFEELHGDRHFADDYAIVGGLARFNGQSVMVVGHQKGRDTKEKIRRNFGMPRPEGYRKALRLMKTAEKFGLPVMTFIDTPGAYPGIGAEERGQSEAIGKNLYELTRLRVPVLCTVIGEGGSGGALAVALGDYVNMLQYSTYSVISPEGCASILWKTAEKAADAAQALGITADRLQKLDLVDTVIKEPLGGAHRDFGQTMKNVKAVLEKQLHEAQSIPLADLLSRRFDRIMAYGKFSEQ” here?
**A.** The value was “not soluble”.

**Q.** With “MAPAKSPRAWQRMLSGRRLDLLDPSPLDVEIADIAHGLARVARWNGQTRGDHAFTVAQHCLIVETIFCRMCPGATPDEMQMALLHDAPEYVIGDMISPFKSVVGGGYKTVEKRLEAAVHLRFGLPPHASRELKDRIKKADTVAAFFEATELAGFSTAEAQKFFGLPRGITRDMFDIIPLPSTEAQRLFIARFEAIETLRVTRTGGAV” as the sequence, how does the “soluble on expression in E. coli” value read?
**A.** Its value is “soluble”.

**Q.** With “MGSDKIHHHHHHEEPCPENGRVTFTVAQTRATQEGTFEKGNSIGVFAIEPKTGVYWATNNKYTYDGRAFKPATEEDNIIVTVGTDLDFYVYYPFKEGQTDITAISHAIGDQQEKSGWLSADFLTASYTDVIQDYTIPLHFEHRLSTVEVRVEGSDRVDGARMENVKYGSRFNLLTGKTVTDETRGSYAMYRYSSGNLTTVFRMTIPAQTLTTTSNYITLTGTPDMKLRGTSDMTTEPGRIHNYRIDYKIRITVLDYPQGGSTTGAGLYDMGSTCTVTASVNGGYEFAGWYEDGRIVSNDTRYSFEVLSDRTLEPRYRNYGGWSVTLTANPSVIGWQGGRSSLVAGASRGVFVNGVAENTQTAVPSLSGGAEGFLLSGNTVTVSENPSGSSRSCVFTASHGGSSATATITQEGSPVSYYFSYADGGTSHTEYPDDSSAGSFILDITSYKKTGNSTKALSWNASGDSWIHVNGSSVSYDENPAKERRTGLVTLKQDESGKTLSLKIVQPGKTSIDIEQ” as the sequence, how does the “soluble on expression in E. coli” value read?
**A.** The value was “not soluble”.
